System: Escherichia coli TOP10
Assay: shrunken log2 fold change of peptide-encoding DNA abundance (4.5 h post-induction vs induction); higher = less antimicrobial activity (less host growth inhibition)
Conditions: time post-induction: 4.5 h; library: site-saturation at positions 5, 18, 19, 20
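Further: peptides expressed intracellularly from a pBAD plasmid library in pooled LB shake-flask culture, induced with 0.3% L-arabinose, DNA abundance read by NGS, three biological replicates, DESeq2 with apeglm shrinkage.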

Row | Sequence | shrunken log2 fold change
1 | RRIRHRPPRLPRPRPRPRAFPRP | -0.146
2 | RRIRFRPPRLPRPRPRPDNDPRP | -0.188
3 | RRIRVRPPRLPRPRPRPQNNPRP | -0.66
4 | RRIRDRPPRLPRPRPRPWNHPRP | -0.00185
5 | RRIRIRPPRLPRPRPRPFKAPRP | -0.431
6 | RRIRCRPPRLPRPRPRPSCLPRP | -0.499
7 | RRIRRRPPRLPRPRPRPRFLPRP | 0.15
8 | RRIRIRPPRLPRPRPRPSVPPRP | -0.835
9 | RRIRDRPPRLPRPRPRPVMDPRP | 0.114
10 | RRIRNRPPRLPRPRPRPKFRPRP | 0.00344
11 | RRIRPRPPRLPRPRPRPTIHPRP | -0.428
12 | RRIRARPPRLPRPRPRPGFYPRP | 0.0241
13 | RRIRMRPPRLPRPRPRPDETPRP | 0.103
14 | RRIRDRPPRLPRPRPRPSFFPRP | -0.168
15 | RRIRHRPPRLPRPRPRPTISPRP | -0.495
16 | RRIRRRPPRLPRPRPRPYMHPRP | -0.451
17 | RRIRMRPPRLPRPRPRPKQTPRP | 3.33
18 | RRIRCRPPRLPRPRPRPGNCPRP | -0.0286
19 | RRIRYRPPRLPRPRPRPLQKPRP | -0.0364
20 | RRIRRRPPRLPRPRPRPRYWPRP | 0.088
21 | RRIRIRPPRLPRPRPRPSTAPRP | -0.263
22 | RRIRVRPPRLPRPRPRPAIWPRP | 0.0627
23 | RRIRNRPPRLPRPRPRPKINPRP | -0.387
24 | RRIRFRPPRLPRPRPRPMAWPRP | -0.0344
25 | RRIRVRPPRLPRPRPRPHHAPRP | -0.0431

Row | Sequence | shrunken log2 fold change
26 | RRIRQRPPRLPRPRPRPHEQPRP | 0.0505
27 | RRIRHRPPRLPRPRPRPEACPRP | -0.0115
28 | RRIRGRPPRLPRPRPRPTNMPRP | 0.316
29 | RRIRQRPPRLPRPRPRPHMPPRP | -0.0493
30 | RRIRCRPPRLPRPRPRPEPYPRP | -0.364
31 | RRIRARPPRLPRPRPRPHFHPRP | -0.197
32 | RRIRVRPPRLPRPRPRPLVIPRP | -0.429
33 | RRIRMRPPRLPRPRPRPARQPRP | 0.825
34 | RRIRKRPPRLPRPRPRPPGDPRP | 0.905
35 | RRIRTRPPRLPRPRPRPVSAPRP | 0.252
36 | RRIRSRPPRLPRPRPRPLDMPRP | 0.0557
37 | RRIRFRPPRLPRPRPRPRERPRP | 1.02
38 | RRIRNRPPRLPRPRPRPDLKPRP | 0.0748
39 | RRIRGRPPRLPRPRPRPEFVPRP | 1.15
40 | RRIRWRPPRLPRPRPRPQATPRP | 0.381
41 | RRIRQRPPRLPRPRPRPWQLPRP | -0.0199
42 | RRIRARPPRLPRPRPRPGYRPRP | -0.107
43 | RRIRTRPPRLPRPRPRPDWWPRP | 0.016
44 | RRIRARPPRLPRPRPRPTVMPRP | 0.497
45 | RRIRYRPPRLPRPRPRPMDNPRP | -0.0386
46 | RRIRQRPPRLPRPRPRPNAPPRP | 0.105
47 | RRIRPRPPRLPRPRPRPERMPRP | 0.122
48 | RRIRIRPPRLPRPRPRPIKDPRP | -0.467
49 | RRIRWRPPRLPRPRPRPAWVPRP | 0.378
50 | RRIRWRPPRLPRPRPRPADGPRP | 0.0472

Row | Sequence | shrunken log2 fold change
51 | RRIRLRPPRLPRPRPRPSNFPRP | -0.956
52 | RRIRHRPPRLPRPRPRPGGYPRP | -0.258
53 | RRIRPRPPRLPRPRPRPGALPRP | 0.243
54 | RRIRKRPPRLPRPRPRPWNPPRP | 0.159
55 | RRIRHRPPRLPRPRPRPAFYPRP | -0.332
56 | RRIRPRPPRLPRPRPRPPLLPRP | 0.081
57 | RRIRTRPPRLPRPRPRPKFAPRP | 0.232
58 | RRIRCRPPRLPRPRPRPCHKPRP | -0.0857
59 | RRIRQRPPRLPRPRPRPLAEPRP | -0.0181
60 | RRIRNRPPRLPRPRPRPRDSPRP | 0.0829
61 | RRIRNRPPRLPRPRPRPVYSPRP | -0.252
62 | RRIRVRPPRLPRPRPRPMQCPRP | 0.0658
63 | RRIRLRPPRLPRPRPRPIPEPRP | 0.0268
64 | RRIRIRPPRLPRPRPRPGFCPRP | 0.135
65 | RRIRNRPPRLPRPRPRPQNQPRP | -0.212
66 | RRIRIRPPRLPRPRPRPPQNPRP | -0.33
67 | RRIRVRPPRLPRPRPRPQVFPRP | -0.0729
68 | RRIRHRPPRLPRPRPRPCRGPRP | 0.00172
69 | RRIRWRPPRLPRPRPRPSHEPRP | 0.0227
70 | RRIRLRPPRLPRPRPRPGQLPRP | -0.0554
71 | RRIRARPPRLPRPRPRPNRVPRP | 0.0397
72 | RRIRDRPPRLPRPRPRPLYIPRP | -0.266
73 | RRIRARPPRLPRPRPRPLEVPRP | 0.676
74 | RRIRNRPPRLPRPRPRPLESPRP | -0.0331
75 | RRIRLRPPRLPRPRPRPRKRPRP | 0.314

Row | Sequence | shrunken log2 fold change
76 | RRIRWRPPRLPRPRPRPRRWPRP | 0.482
77 | RRIRGRPPRLPRPRPRPEMKPRP | 0.73
78 | RRIRNRPPRLPRPRPRPAIAPRP | 0.0215
79 | RRIRHRPPRLPRPRPRPDTIPRP | -0.0628
80 | RRIRGRPPRLPRPRPRPMVQPRP | 0.0883
81 | RRIRVRPPRLPRPRPRPVMPPRP | -0.0577
82 | RRIRNRPPRLPRPRPRPLNRPRP | -0.327
83 | RRIRWRPPRLPRPRPRPIMQPRP | 0.0828
84 | RRIRYRPPRLPRPRPRPRIVPRP | -0.369
85 | RRIRRRPPRLPRPRPRPWSHPRP | -0.121
86 | RRIRPRPPRLPRPRPRPCHTPRP | -0.498
87 | RRIRWRPPRLPRPRPRPDKMPRP | -0.0535
88 | RRIRLRPPRLPRPRPRPTVYPRP | -0.146
89 | RRIRVRPPRLPRPRPRPMNYPRP | -0.128
90 | RRIRCRPPRLPRPRPRPQCRPRP | -0.421
91 | RRIRWRPPRLPRPRPRPLDGPRP | 0.15
92 | RRIRNRPPRLPRPRPRPKWLPRP | -0.00522
93 | RRIRRRPPRLPRPRPRPIEFPRP | -0.0597
94 | RRIRIRPPRLPRPRPRPDTQPRP | -0.167
95 | RRIRQRPPRLPRPRPRPKTNPRP | -0.117
96 | RRIRNRPPRLPRPRPRPMACPRP | -0.109
97 | RRIRVRPPRLPRPRPRPQYHPRP | -0.648
98 | RRIRYRPPRLPRPRPRPGFVPRP | 0.0168
99 | RRIRKRPPRLPRPRPRPILEPRP | 0.261
100 | RRIRNRPPRLPRPRPRPKGMPRP | -0.112

Row | Sequence | shrunken log2 fold change
101 | RRIRLRPPRLPRPRPRPTSQPRP | -0.145
102 | RRIRERPPRLPRPRPRPYKHPRP | -0.684
103 | RRIRFRPPRLPRPRPRPKWYPRP | -0.388
104 | RRIRWRPPRLPRPRPRPVCHPRP | 0.0811
105 | RRIRVRPPRLPRPRPRPTCYPRP | -0.118
106 | RRIRNRPPRLPRPRPRPGWYPRP | -0.273
107 | RRIRERPPRLPRPRPRPDFAPRP | 0.159
108 | RRIRKRPPRLPRPRPRPWDSPRP | 0.0485
109 | RRIRVRPPRLPRPRPRPGWHPRP | 0.132
110 | RRIRMRPPRLPRPRPRPAACPRP | 0.763
111 | RRIRGRPPRLPRPRPRPFRMPRP | 0.00538
112 | RRIRQRPPRLPRPRPRPNYCPRP | -0.0656
113 | RRIRLRPPRLPRPRPRPFLDPRP | -0.228
114 | RRIRKRPPRLPRPRPRPDSHPRP | -0.427
115 | RRIRCRPPRLPRPRPRPYYMPRP | -0.904
116 | RRIRPRPPRLPRPRPRPWITPRP | -0.469
117 | RRIRKRPPRLPRPRPRPNMRPRP | 0.334
118 | RRIRARPPRLPRPRPRPDRWPRP | 0.685
119 | RRIRHRPPRLPRPRPRPMSSPRP | -0.225
120 | RRIRYRPPRLPRPRPRPMDWPRP | 0.0155
121 | RRIRYRPPRLPRPRPRPKEVPRP | 0.0274
122 | RRIRSRPPRLPRPRPRPEIHPRP | 0.0186
123 | RRIRERPPRLPRPRPRPFNGPRP | -0.145
124 | RRIRMRPPRLPRPRPRPGVHPRP | 0.0493
125 | RRIRFRPPRLPRPRPRPAWNPRP | 0.291

Row | Sequence | shrunken log2 fold change
126 | RRIRRRPPRLPRPRPRPNDRPRP | 0.205
127 | RRIRVRPPRLPRPRPRPDGMPRP | -0.454
128 | RRIRTRPPRLPRPRPRPEKSPRP | 0.288
129 | RRIRGRPPRLPRPRPRPMYYPRP | 0.197
130 | RRIRERPPRLPRPRPRPEFHPRP | -0.207
131 | RRIRTRPPRLPRPRPRPGNQPRP | -0.0161
132 | RRIRKRPPRLPRPRPRPDYYPRP | 0.0521
133 | RRIRLRPPRLPRPRPRPRRQPRP | 0.234
134 | RRIRGRPPRLPRPRPRPHMTPRP | 1.45
135 | RRIRYRPPRLPRPRPRPMHAPRP | 0.495
136 | RRIRMRPPRLPRPRPRPKDNPRP | 1.43
137 | RRIRTRPPRLPRPRPRPHETPRP | -0.00261
138 | RRIRHRPPRLPRPRPRPGMKPRP | -0.113
139 | RRIRMRPPRLPRPRPRPPERPRP | 1.98
140 | RRIRGRPPRLPRPRPRPACWPRP | 1.08
141 | RRIRARPPRLPRPRPRPTEIPRP | -0.0477
142 | RRIRWRPPRLPRPRPRPLNDPRP | -0.281
143 | RRIRDRPPRLPRPRPRPRCKPRP | -0.0316
144 | RRIRYRPPRLPRPRPRPYVVPRP | -0.24
145 | RRIRCRPPRLPRPRPRPQVPPRP | -0.106
146 | RRIRCRPPRLPRPRPRPTRHPRP | 0.161
147 | RRIRKRPPRLPRPRPRPNYFPRP | -0.303
148 | RRIRDRPPRLPRPRPRPHPMPRP | 0.0468
149 | RRIRPRPPRLPRPRPRPTDCPRP | 0.165
150 | RRIRHRPPRLPRPRPRPVHFPRP | -0.011
